Test results from a protein production outcome set (Wang et al. 2014).

Assay: label from the status in PepcDB records
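Further: failed if final PepcDB status was selected cloned or expressed and not failed if soluble or beyond.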

Sequence: MRVGIKVLGCPKNEADCEVLAGVLREGGHEIVFDVKDADVVVLDTCAFIEDAKRESIDEIFSFVDAKDQYGYKLVVKGCLVQRYYEELKKEIPEVDQWIGVADPEEIANAIENGTDLVPDQPETVYRYRKRIDLEERPYAYVKISDGCDRGCTFCSIPSFKGSLRSRSIEDITREVEDLLKEGKKEIILVAQDTTSYGIDLYRKQALPDLLRRLNSLNGEFWIRVMYLHPDHLTEEIISAMLELDKVVKYFDVPVQHGSDKILKLMGRTKSSEELKKMLSSIRERFPDAVLRTSIIVGFPGETEEDFEELKQFVEEIQFDKLGAFVYSDEEGTVAFNLKEKVDPEMAKRRQEELLLLQAEISNSRLDRFVGKKLKFLVEGKEGKFLVGRTWTEAPEVDGVVFVRGKGKIGDFLEVVIKEHDEYDMWGSVILEHHHHHH
- protein production: not failed

Sequence: MSLDTGVTSVMFVERSLNEIRFWSRIMKEHSFFLRLGFRCEDTQLIEEANQFYRLFEHIEQIAHSYTNETDPEQIKRFNAEVQQAATNIWGFKRKILGLILTCKLPGQNNFPLLVDHTSREADYFRKRLIQLNEGKLDALPDAIIKENVFFLRIMADHAKFIGHLLDPSERKLVDTARNFSNDFDELMYQAIDLESMKPQSQTAPLLDQFLDQNRVSVASLRDFKKTARDLIEQCKIKSIIHPLLADHVFREADRFLEIIDMYDVHLTNIQSQPREGHHHHHH
- protein production: not failed

Sequence: MHTFTASSSLGASADALFTWHSRPGAFERLTPPWAPVRLQSFEGIEAGDRAVLRIGPGPLAVRWVAEHYGVEPGRQFCDRQVQGPFSHWEHTHRFTPADDDTGGATLTDRIEYEPPGGALGRQAAPWLEAELRRQFAYRHRITRRDLSLHQQYNPDDRSLTIAVSGASGLVGSSLVPFLTTGGHTVKRLTRSGPTGADEILWDPRTDRVEADKLEGIDAVIHLAGENVFGPWTPAKKQRIYSSRADGTRLLAEALAGLDDPPEVLVSSSAVGYYGDHGADRITEESAPRDAGFLGEVCEAWEAAAEPAAAAGIRTVQMRTGIVLTPAGGALRLMLPAFWLGLGGRVGGRHQYFPWITLDDVIGGIYHALWTDALEGPVNLTAPRPVTMQAYTDTLADVLHRPAFLNVPSSVVRTVGGEMADEMLLTSARAVPQRLQDTGYDFGASALEDGLRHVLGRTAD
- protein production: failed

Sequence: GDGNITTENIPVSEYDCLELEGGGMVVNYTQSDAPEGLEIKTDRNIFEKYEFNVENHKLKIRPKKEFRKHTNFRPTEFMVTANSRNLKKLAAAGSTHVNINSPLQAEEFEAGLAGSGIIQFHDTASFTNLKIEIAGSGDFVGHKVYCEELNGDMAGSNTIVLGGTVGIAEFSIAGSGTVRAFDCTMDELECKIAGSGDIEAFVVNKIKAEIAGSGSVKYKGDPQDIQKKVMGSGKIEKVE
- protein production: not failed

Sequence: MLSMIGLVGGLVLLIVLTLRGMNLFISAPLCAVIVALCSGVPLLTGDVNFVSAYMDGFASFVAAWFFMFLLGSMFGKFMEDTGAADSVARWIINKLGRKQAVLAVVLACAILTYGGVSVFVVAFSVYPMALSLFKDANLPRRFIPAALAFGSVTFTMTSAGSPEIQNWIPVKYLGTSPYAAWEVSLVVAVLMATFGYWWLRKIINRAIANGEKFEAREGDPILLERKLPSPISGLIPLLVVLGLSFTFHDTLQQNALIVALLGGVIAIAVINFKHFHKPQTAIHEATTGALVAIGNTAAVVGFGSIAKITPAFDAAVTAMTSLPGNELVGAAVAVSVIAGLTGSASGGQAIALPEVGPHYMAAGVNPEQLHRIVSISSGALDSLPHNGYVVTTIRAICNEKHSAAYWAVAAVTVVVPLMGLAVAIGLFML
- protein production: failed

Sequence: MDHTSPTYMLANLTHLHSEQLLQGLNLLRQHHELCDIILRVGDVKIHAHKVVLASVSPYFKAMFTGNLSEKENSEVEFQCIDETALQAIVEYAYTGTVFISQDTVESLLPAANLLQIKLVLKECCAFLESQLDPGNCIGISRFAETYGCRDLYLAATKYICQNFEAVCQTEEFFELTHADLDEIVSNDCLNVATEETVFYALESWIKYDVQERQKYLAQLLNSVRLPLLSVKFLTRLYEANHLIRDDRTCKHLLNEALKYHFMPEHRLSHQTVLMTRPRCAPKVLCAVGGKSGLFACLDSVEMYFPQNDSWIGLAPLNIPRYEFGICVLDQKVYVIGGIATNVRPGVTIRKHENSVECWNPDTNTWTSLERMNESRSTLGVVVLAGELYALGGYDGQSYLQSVEKYIPKIRKWQPVAPMTTTRSCFAAAVLDGMIYAIGGYGPAHMNSVERYDPSKDSWEMVASMADKRIHFGVGVMLGFIFVVGGHNGVSHLSSIERYDPHQNQWTVCRPMKEPRTGVGAAVIDNYLYVVGGHSGSSYLNTVQKYDPISDTWLDSAGMIYCRCNFGLTAL
- protein production: failed

Sequence: MIIGCSASQKLAASVADLLDEPLCPVETRKFPDGERYIRVKEEVEGEVTVVQSTGYPQDENLMELLFMIENLKDLGADYVRAAIPYFGYGRQERRFKSGEAVSAKIVAHLLEAAGADEIVTVNLHENCLSEFFRVPVRELSAMPLIAEHISFLDDPVIIAPDKGALGHAREVSDILGCECDYMEKVRISPEVVETRVSDLDVEGKDAVVVDDIISTGGTIVNAAGILGKCGASSITVCCVHPVLVEDALLKIFSAGVERVIATDTLKSDVSEISVAPLIADVMKD
- protein production: failed

Sequence: MPDITISWVAAILGLVVAIVLILKKFNPVYSLFFGAIVGCLIGGASLSDTVAVLLNGTQSIMGTAIRVLAAGMLAGVMMESGAAESIANAIVQKLGEKKAILSLALSTMVITAVGVFIPVAVLIVAPIALSVGKSTGISKLSLLIALSGGGKAGNIISPNPNTIAAANGFDLPLSDVMIAGFIPAVFGLITAVVLANIMRNKGSMVKETDLVEEQTKELLPLKKALIAPVLAIVLLLLNPIGAVLNISFIKSLNIDALYILPFASVVGTIAIGQTKQLAFYASSGLKRVTDTVLILIGAGAIAGLISVSDLSTQIVHLISVMGISGTFLAPISGILMGLAVGSTSTAVILATGSFGPAILDMGTSSLSAAVMVHTGATVIDSVPQGNYFHITAQSMNMTIKERIRVIPYEMCVGGVMTIVATILYGFILN
- protein production: failed

Sequence: QSQGGGSVTKKRKLESSESRSSFSQHARTSGRVAVEEVDEEGKFVRLRNKSNEDQSMGNWQIRRQNGDDPLMTYRFPPKFTLKAGQVVTIWASGAGATHSPPTDLVWKAQNTWGCGSSLRTALINSTGEEVAMRKLVR
- protein production: not failed

Sequence: MTISWFQAALLGLFACLSSMPGLGGTTIGNYTLGRPLVGGLVCGLILGDIKTGIVCGVAMQLVYIALVTPGGTVSADVRAVSYIGIPLAMVAIHSQGLSATSSDAANLAKSMGTLVGTIGTVLFYGTATMNLVWQHIGWQAVEKREFKRLYVVDWGLPWISHIVFSFIPTLIMCKLGADAVTALKNALPMDGIPMKTLFTVGSLLPCVGIAILLKQIVEKAVDFIPFFVGFTLAASLGLNLVSCAVISLIFAVLFYELETIKNMRATASAEASDFDDDDEEDI
- protein production: failed

Sequence: MSEMIYGIHAVQALLERAPERFQEVFILKGREDKRLLPLIHALESQGVVIQLANRQYLDEKSDGAVHQGIIARVKPGRQYQENDLPDLIASLDQPFLLILDGVTDPHNLGACLRSADAAGVHAVIVPKDRSAQLNATAKKVACGAAESVPLIRVTNLARTMRMLQEENIWIVGTAGEADHTLYQSKMTGRLALVMGAEGEGMRRLTREHCDELISIPMAGSVSSLNVSVATGICLFEAVRQRS
- protein production: not failed

Sequence: MPSPVEADAKVTMRLRYTKTGAMRYLSHLEMIGLFTRAVGRARLPIRFSQGFHPHPKFSFATALSVGVESWAEYLDMELIPSLTPGEVRDRLNAALPEGMRIVEAVVIPPGTPSLSVLMDKVRYRIILLEEAARDLAARAEAFLARDSFPLRRAKKGRIQEYDLEHHHHHH
- protein production: failed

Sequence: MVKVAHVQLSSCCGCLVSLADTYEKLLDVLGAIDLVYSQTLADVREVPDDVDIILLEGSVCLSDHHAMEVALDSRKKAKILVALGACAATGNVTRFSKGNQPSKPVHDAFAPLTEVVKCDLAIPGCPPSPESIVAVVLAALNGDMEYLEPYAELAKYGSEACGCDLITKVINKSLCMGCGSCAAACPTRAVSMDAGRPLVDKEICIKCGSCSVQCPRIRFPDLIEKIE
- protein production: failed

Sequence: EDSLATVKVVLIPVGQEIVIPFKVDTILKYLKDHFSHLLGIPHSVLQIRYSGKILKNNETLVQHGVKPQEIVQVEIFSTNPDLYPVRR
- protein production: failed

Sequence: IKVGKAKLLNQVLVNLPTSISQQTIAETDGDSAGSDSFPVGRTHHRWYLCHFGQSLIHVIQVVIGYFIMLAVMSYNTWIFLGVVLGSAVGYYLAYPLLSTA
- protein production: not failed

Sequence: MSAATPQPPAPHVVLGSGPAGTALARELVRRGHPVRLVDRRATGPAVEGVERFPADVGTADGARAAIRDAAVVYHCVNVAYHLQVEVMPRVQEAVLAAVEESGARLVVLDTVYPYGETGGAVMTEDSPWKATSRKGRMRAELDERYLAAHRSGRARVVLGRSADFVGPGVLNSSLGAAVFPGALTGGDVVAMGNIDLPHSYTGIEDVAAALATLGERPDGDGRVWHLPTAPAVSTREIHALIEKRVGRPLNVVVLERPRPFGPFDEQLMAEYEEMFYQHTEAQIMDSGAFERFFEAAPTPLADTLDATVTWYEAWLRSR
- protein production: failed

Sequence: MATTNYSMIFIGNLQVAVDRSSLYESSDYSSFVARECLNKDSAMKPYDIFIFEKDEHFSVEDHYTAGNSSNESNTRPSDIFLKKKLVGLNPSILQLNREKRKATLKFSGDNKDILQSTLSSSKNINLSGGLFVSREYENKYVKFGARMRCDLVNRMKDVTLAWHESVSSTSDKNVELSSVENHKIAPKADGPGNSSNESSSSPFDIFLKKKVMRLKPSFLELNREKKKAAKGFSGIVIRPGMVLLKNYLSINNQVMIVNKCRQLGLGEGGFYQPGFQDGGLLHLKMMCLGKNWDCQTRRYGEIRPIDGSVPPRIPVEFSQLVEKAIKESKSLVATNSNETKGGDEIPLLLPDICVVNFYTSTGKLGLHQDKGESKKSLRKGLPIVSFSIGDSAEFLYGDQKDVDKADTLILESGDVLIFGERSRNVFHGVRSIRKILPPRLFFRKQIFNQVV
- protein production: failed

Sequence: PFKESQARGLLQDNMANGYNGEDFESGLLELSKEIFPTNKYLYQDGQYLDKKTINAYLDPKYTKKEIDKMSEKEKKSKNANENLGLNPSHNGETDEEKIAKNSPAYLSNILEQDFYGNSDSKGKNIKGMTIGLAMNSVYYYKKEKDGETFSKDLSDKEIEKQGKQMASEMLSRLRENSDLKDIPIHFAIYKQSSQDSITPGEFIVGTTVEEGKTKINSWDNINEKAALIPSSTAADYDETLNNNFKQFNDNLQSYFSNFTQAVGKVKFVNKKAKQLTVDLPIDYYGQAETIGITQYVTEQAEKYFDKLDEYEIRIKDGNTPRALISKTKDDKEPQVHIYHN
- protein production: not failed

Sequence: MDSENAVKTTYGEFNGKKPFAVMLLGTDTGALDRTEKRGNTDTIIVVVVNPKKKNYTMISIPRDTMADMVGDDSNDVQKINAAYSIGGAKMAMKTVSNLLNIPVKYYALVNMGGLMKLVDYVGGIYVTPPLTFTYSGFPFKKRVRQHLNGQAALAYSRMRYDDPQGDYGRQKRQREVITKLVQKLATADSLTNFSKIANNLSSNVKTNLSFQALKSILANYSDCTSSSDSDYLHGYSTYVNDAAYQIAPTSELQRISNKIRKLLGLKTATVSNRETELNTLNETAGFKFGSGETQNYTLEHHHHHH
- protein production: failed
